One protein from PMC9178029, “The structure of EXTL3 helps to explain the different roles of bi-domain exostosins in heparan sulfate synthesis” (Nature Communications, 2022) can be followed below.

This series deals with the molecule itself. Description: cryo-EM structure; single-particle cryo-EM of purified EXTL3ΔN at 0.1-0.4 mg/ml, C2 symmetry; apo (2.4 Å) and with 10 mM UDP and 2.5 mM MnCl2 (2.9 Å); buffer 50 mM Tris-HCl pH 6.8, 100 mM NaCl, 50 mM KCl.

B1: EXTL3ΔN, soluble form of human exostosin-like 3 (EXTL3) lacking the first 51 amino acids (enzyme, UniProt O43909 52-919, looked up)
chain: TTLDEADEAGKRIFGPRVGNELCEVKHVLDLCRIRESVSEELLQLEAKRQELNSEIAKLNLKIEACKKSIENAKQDLLQLKNVISQTEHSYKELMAQNQPKLSLPIRLLPEKDDAGLPPPKATRGCRLHNCFDYSRCPLTSGFPVYVYDSDQFVFGSYLDPLVKQAFQATARANVYVTENADIACLYVILVGEMQEPVVLRPAELEKQLYSLPHWRTDGHNHVIINLSRKSDTQNLLYNVSTGRAMVAQSTFYTVQYRPGFDLVVSPLVHAMSEPNFMEIPPQVPVKRKYLFTFQGEKIESLRSSLQEARSFEEEMEGDPPADYDDRIIATLKAVQDSKLDQVLVEFTCKNQPKPSLPTEWALCGEREDRLELLKLSTFALIITPGDPRLVISSGCATRLFEALEVGAVPVVLGEQVQLPYQDMLQWNEAALVVPKPRVTEVHFLLRSLSDSDLLAMRRQGRFLWETYFSTADSIFNTVLAMIRTRIQIPAAPIREEAAAEIPHRSGKAAGTDPNMADNGDLDLGPVETEPPYASPRYLRNFTLTVTDFYRSWNCAPGPFHLFPHTPFDPVLPSEAKFLGSGTGFRPIGGGAGGSGKEFQAALGGNVPREQFTVVMLTYEREEVLMNSLERLNGLPYLNKVVVVWNSPKLPSEDLLWPDIGVPIMVVRTEKNSLNNRFLPWNEIETEAILSIDDDAHLRHDEIMFGFRVWREARDRIVGFPGRYHAWDIPHQSWLYNSNYSCELSMVLTGAAFFHKYYAYLYSYVMPQAIRDMVDEYINCEDIAMNFLVSHITRKPPIKVTSRWTFRCPGCPQALSHDDSHFHERHKCINFFVKVYGYMPLLYTQFRVDSVLFKTRLPHDKTKCFKFI
modifications: partial N-glycans modelled at Asn592 and Asn790; intermolecular disulfide bridges between Cys793 and Cys915
notes: human exostosin-like 3 (EXTL3), amino acids 52-919; holds the predicted coiled coil, the GT47 domain, the inter-domain linker and the GT64 domain; lacks the transmembrane helix; Only the 170 kDa globular part (GT47, linker, GT64) is seen in the map; the coiled coil is not visible; also called EXTL3∆N; secretory EXTL3∆N
On to B1, for which the “stoichiometry N” value was 2.
